Results on 1 molecule are retold here after patent US20110086364A1 (TEKNOLOGIAN TUTKIMUSKESKUS VTT, published 2011).

In this assay the target is T1, immune complex of anti-THC T3 Fab and THC (tetrahydrocannabinol).
T1 construct: the target is the Fab-hapten complex; The Fab was labeled with europium (LANCE Eu-W1024 ITC chelate) for TR-FRET and biotinylated for phage selection; also called T3+THC complex; T3+THC immune complex
The assay is described as follows: homogeneous TR-FRET in saliva: Eu-labeled T3 Fab, Alexa Fluor 647-labeled Fab 104, spiked THC. The method, then: 40 μl saliva samples spiked with 0, 3.75, 7.5, 15, 30, 60 and 120 ng/ml of the following drugs: D9-THC, 11-OH-D9-THC, 11-nor-D9-THC-COOH, heroin and amphetamine were added to the wells. After short mixing, the time resolved fluorescence resonance energy transfer (TR-FRET) was measured by Victor V fluorometer (Perkin Elmer Wallac).

T1 sequence (VH, as listed by the source, chain 1 of 2): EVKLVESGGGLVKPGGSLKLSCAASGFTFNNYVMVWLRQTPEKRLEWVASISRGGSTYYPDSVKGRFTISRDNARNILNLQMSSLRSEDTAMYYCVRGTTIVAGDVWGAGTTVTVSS
T1 sequence (VL, as listed by the source, chain 2 of 2): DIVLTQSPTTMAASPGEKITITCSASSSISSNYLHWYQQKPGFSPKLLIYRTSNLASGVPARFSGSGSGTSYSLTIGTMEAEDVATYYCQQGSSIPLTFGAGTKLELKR

B1: anti-T3+THC immune complex Fab 104 (Fab, V domains shown)
VH: QVQLVQSGTEVKKPGATVKISCKFSGDNFIDYYMHWVKQAQGKGLEWLGLVDLGDGQTIYAEKFHGRGTITADSSRDTAYMELSSLRSEDTAVYYCAAAKAYRQGVMDVWGQGTLVTVSS
VL: NFMLTQPHSVSESPGKTVTISCTGSSGSIASNYVQWYQQRPGSAPTTVIYEDNQRPSGVPDRFSGSIDSSSNSASLTISGLKTEDEADYYCQSYDSSNQVFGGGTKLTVLG
notes: Labeled with Alexa Fluor 647 for the TR-FRET assay
B1: the binding result was “binds”.
